Measured values from paper doi:10.1101/2024.03.26.586525 (bioRxiv, 2024).
Like-named read-outs stand apart in the source and are kept apart here.

Columns and labels:
[1] = biological target: the molecule itself; assay: cryo-EM structure
[2] = biological target: the molecule itself; assay: cryo-EM structure; remark: listed apart in the source

B1: aldehyde dehydrogenase 4 (Ald4) (enzyme, S. cerevisiae (endogenous in SK1 cells), UniProt P46367 25-519, looked up)
chain: SHLPMTVPIKLPNGLEYEQPTGLFINNKFVPSKQNKTFEVINPSTEEEICHIYEGREDDVEEAVQAADRAFSNGSWNGIDPIDRGKALYRLAELIEQDKDVIASIETLDNGKAISSSRGDVDLVINYLKSSAGFADKIDGRMIDTGRTHFSYTKRQPLGVCGQIIPWNFPLLMWAWKIAPALVTGNTVVLKTAESTPLSALYVSKYIPQAGIPPGVINIVSGFGKIVGEAITNHPKIKKVAFTGSTATGRHIYQSAAAGLKKVTLELGGKSPNIVFADAELKKAVQNIILGIYYNSGEVCCAGSRVYVEESIYDKFIEEFKAASESIKVGDPFDESTFQGAQTSQMQLNKILKYVDIGKNEGATLITGGERLGSKGYFIKPTVFGDVKEDMRIVKEEIFGPVVTVTKFKSADEVINMANDSEYGLAAGIHTSNINTALKVADRVNAGTVWINTYNDFHHAVPFGGFNASGLGREMSVDALQNYLQVKAVRAKLDE
- stoichiometry N [1]: 4

B2: acetyl-coenzyme A synthetase 1 (Acs1) (enzyme, S. cerevisiae (endogenous in SK1 cells), UniProt Q01574 1-713, looked up)
chain: MSPSAVQSSKLEEQSSEIDKLKAKMSQSAATAQQKKEHEYEHLTSVKIVPQRPISDRLQPAIATHYSPHLDGLQDYQRLHKESIEDPAKFFGSKATQFLNWSKPFDKVFIPDPKTGRPSFQNNAWFLNGQLNACYNCVDRHALKTPNKKAIIFEGDEPGQGYSITYKELLEEVCQVAQVLTYSMGVRKGDTVAVYMPMVPEAIITLLAISRIGAIHSVVFAGFSSNSLRDRINDGDSKVVITTDESNRGGKVIETKRIVDDALRETPGVRHVLVYRKTNNPSVAFHAPRDLDWATEKKKYKTYYPCTPVDSEDPLFLLYTSGSTGAPKGVQHSTAGYLLGALLTMRYTFDTHQEDVFFTAGDIGWITGHTYVVYGPLLYGCATLVFEGTPAYPNYSRYWDIIDEHKVTQFYVAPTALRLLKRAGDSYIENHSLKSLRCLGSVGEPIAAEVWEWYSEKIGKNEIPIVDTYWQTESGSHLVTPLAGGVTPMKPGSASFPFFGIDAVVLDPNTGEELNTSHAEGVLAVKAAWPSFARTIWKNHDRYLDTYLNPYPGYYFTGDGAAKDKDGYIWILGRVDDVVNVSGHRLSTAEIEAAIIEDPIVAECAVVGFNDDLTGQAVAAFVVLKNKSSWSTATDDELQDIKKHLVFTVRKDIGPFAAPKLIILVDDLPKTRSGKIMRRILRKILAGESDQLGDVSTLSNPGIVRHLIDSVKL
- stoichiometry N [2]: 3
